# B1: FAS-associated factor 1 (Homo sapiens), Q9UNN5-1 (parent)
# chain: MASNMDREMILADFQACTGIENIDEAITLLEQNNWDLVAAINGVIPQENGILQSEYGGETIPGPAFNPASHPASAPTSSSSSAFRPVMPSRQIVERQPRMLDFRVEYRDRNVDVVLEDTCTVGEIKQILENELQIPVSKMLLKGWKTGDVEDSTVLKSLHLPKNNSLYVLTPDLPPPSSSSHAGALQESLNQNFMLIITHREVQREYNLNFSGSSTIQEVKRNVYDLTSIPVRHQLWEGWPTSATDDSMCLAESGLSYPCHRLTVGRRSSPAQTREQSEEQITDVHMVSDSDGDDFEDATEFGVDDGEVFGMASSALRKSPMMPENAENEGDALLQFTAEFSSRYGDCHPVFFIGSLEAAFQEAFYVKARDRKLLAIYLHHDESVLTNVFCSQMLCAESIVSYLSQNFITWAWDLTKDSNRARFLTMCNRHFGSVVAQTIRTQKTDQFPLFLIIMGKRSSNEVLNVIQGNTTVDELMMRLMAAMEIFTAQQQEDIKDEDEREARENVKREQDEAYRLSLEADRAKREAHEREMAEQFRLEQIRKEQEEEREAIRLSLEQALPPEPKEENAEPVSKLRIRTPSGEFLERRFLASNKLQIVFDFVASKGFPWDEYKLLSTFPRRDVTQLDPNKSLLEVKLFPQETLFLEAKE
# Variants of: B1
# Conditions: with tera_human VCP
row,Variant,effect of a mutation on the interaction
1,F619A,decreasing interaction
2,P620N,decreasing interaction
3,R579A,decreasing interaction

# Results, then the variant that gave them:
row,effect of a mutation on the interaction,Variant
1,decreasing interaction,R621A
2,decreasing interaction,P640N
